± gives the uncertainty stated by the source.
B1: RUN and FYVE domain-containing protein 1, residues 639 to 698; numbered along this chain, Q96T51 (parent)
chain: WLKDDEATHCRQCEKEFSISRRKHHCRNCGHIFCNTCSSNELALPSYPKPVRVCDSCHTL

Variants of: B1
Assay: abundance fitness (aPCA) (normalised: wild type 0, dead -1); higher = more abundant; growth selection in yeast, the domain comes from the species named
Conditions: Homo sapiens

For WLKDDEATHCRQCEKEFSISRRGHHCRNCGHIFCNTCSSNELALPSYPKPVRVCDSCHTL [K23G], which abundance fitness is on record?
The abundance fitness was -0.034 ± 0.044.

For WLKDDEATHCRQCEKEFSISRRIHHCRNCGHIFCNTCSSNELALPSYPKPVRVCDSCHTL [K23I], which abundance fitness is on record?
Its abundance fitness is -0.207 ± 0.086.

For WLKDDEATHCRQCEKEFSISRRCHHCRNCGHIFCNTCSSNELALPSYPKPVRVCDSCHTL [K23C], which abundance fitness is on record?
The abundance fitness was -0.176 ± 0.057.

For WLKDDEATHCRQCEKEFSISRREHHCRNCGHIFCNTCSSNELALPSYPKPVRVCDSCHTL [K23E], which abundance fitness is on record?
Its abundance fitness is -0.165 ± 0.065.

With WLKDDEATHCRQCEKEFSISRRYHHCRNCGHIFCNTCSSNELALPSYPKPVRVCDSCHTL [K23Y] as the variant, how does the abundance fitness read?
Its abundance fitness is -0.575 ± 0.095.

With WLKDDEATHCRQCEKEFSISRRQHHCRNCGHIFCNTCSSNELALPSYPKPVRVCDSCHTL [K23Q] as the variant, how does the abundance fitness read?
Its abundance fitness is -0.261 ± 0.055.

With WLKDDEATHCRQCEKEFSISRRMHHCRNCGHIFCNTCSSNELALPSYPKPVRVCDSCHTL [K23M] as the variant, how does the abundance fitness read?
Its abundance fitness is -0.137 ± 0.049.

For WLKDDEATHCRQCEKEFSISRRNHHCRNCGHIFCNTCSSNELALPSYPKPVRVCDSCHTL [K23N], which abundance fitness is on record?
The abundance fitness was -0.491 ± 0.074.

With WLKDDEATHCRQCEKEFSISRRKHHCANCGHIFCNTCSSNELALPSYPKPVRVCDSCHTL [R27A] as the variant, how does the abundance fitness read?
Its abundance fitness is 0.189 ± 0.048.

Which abundance fitness does the source give for WLKDDEATHCRQCEKEFSISRRKTHCRNCGHIFCNTCSSNELALPSYPKPVRVCDSCHTL [H24T] here?
The abundance fitness was -0.146 ± 0.051.

Which abundance fitness does the source give for WLKDDEATHCRQCEKEFSISRRKVHCRNCGHIFCNTCSSNELALPSYPKPVRVCDSCHTL [H24V] here?
Its abundance fitness is -0.166 ± 0.046.

Which abundance fitness does the source give for WLKDDEATHCRQCEKEFSISRRKNHCRNCGHIFCNTCSSNELALPSYPKPVRVCDSCHTL [H24N] here?
The abundance fitness was -0.256 ± 0.087.

For WLKDDEATHCRQCEKEFSISRRKPHCRNCGHIFCNTCSSNELALPSYPKPVRVCDSCHTL [H24P], which abundance fitness is on record?
Its abundance fitness is -0.97 ± 0.091.

With WLKDDEATHCRQCEKEFSISRRKCHCRNCGHIFCNTCSSNELALPSYPKPVRVCDSCHTL [H24C] as the variant, how does the abundance fitness read?
Its abundance fitness is -0.135 ± 0.066.

With WLKDDEATHCRQCEKEFSISRRKGHCRNCGHIFCNTCSSNELALPSYPKPVRVCDSCHTL [H24G] as the variant, how does the abundance fitness read?
The abundance fitness was -0.515 ± 0.066.

Which abundance fitness does the source give for WLKDDEATHCRQCEKEFSISRRKRHCRNCGHIFCNTCSSNELALPSYPKPVRVCDSCHTL [H24R] here?
Its abundance fitness is -0.378 ± 0.045.

Which abundance fitness does the source give for WLKDDEATHCRQCEKEFSISRRKIHCRNCGHIFCNTCSSNELALPSYPKPVRVCDSCHTL [H24I] here?
Its abundance fitness is -0.443 ± 0.061.

For WLKDDEATHCRQCEKEFSISRRKSHCRNCGHIFCNTCSSNELALPSYPKPVRVCDSCHTL [H24S], which abundance fitness is on record?
The abundance fitness was -0.284 ± 0.039.

Which abundance fitness does the source give for WLKDDEATHCRQCEKEFSISRRKMHCRNCGHIFCNTCSSNELALPSYPKPVRVCDSCHTL [H24M] here?
The abundance fitness was -0.148 ± 0.047.

With WLKDDEATHCRQCEKEFSISRRKAHCRNCGHIFCNTCSSNELALPSYPKPVRVCDSCHTL [H24A] as the variant, how does the abundance fitness read?
The abundance fitness was -0.266 ± 0.053.

Which abundance fitness does the source give for WLKDDEATHCRQCEKEFSISRRKLHCRNCGHIFCNTCSSNELALPSYPKPVRVCDSCHTL [H24L] here?
Its abundance fitness is -0.458 ± 0.046.

With WLKDDEATHCRQCEKEFSISRRKWHCRNCGHIFCNTCSSNELALPSYPKPVRVCDSCHTL [H24W] as the variant, how does the abundance fitness read?
The abundance fitness was -0.282 ± 0.048.

Which abundance fitness does the source give for WLKDDEATHCRQCEKEFSISRRKFHCRNCGHIFCNTCSSNELALPSYPKPVRVCDSCHTL [H24F] here?
Its abundance fitness is -0.351 ± 0.063.

For WLKDDEATHCRQCEKEFSISRRKQHCRNCGHIFCNTCSSNELALPSYPKPVRVCDSCHTL [H24Q], which abundance fitness is on record?
Its abundance fitness is -0.293 ± 0.062.

With WLKDDEATHCRQCEKEFSISRRKDHCRNCGHIFCNTCSSNELALPSYPKPVRVCDSCHTL [H24D] as the variant, how does the abundance fitness read?
The abundance fitness was -0.251 ± 0.071.

Which abundance fitness does the source give for WLKDDEATHCRQCEKEFSISRRKEHCRNCGHIFCNTCSSNELALPSYPKPVRVCDSCHTL [H24E] here?
Its abundance fitness is 0.051 ± 0.047.

Which abundance fitness does the source give for WLKDDEATHCRQCEKEFSISRRKHHFRNCGHIFCNTCSSNELALPSYPKPVRVCDSCHTL [C26F] here?
The abundance fitness was -0.89 ± 0.14.

With WLKDDEATHCRQCEKEFSISRRKHHRRNCGHIFCNTCSSNELALPSYPKPVRVCDSCHTL [C26R] as the variant, how does the abundance fitness read?
The abundance fitness was -0.804 ± 0.076.

For WLKDDEATHCRQCEKEFSISRRKHHMRNCGHIFCNTCSSNELALPSYPKPVRVCDSCHTL [C26M], which abundance fitness is on record?
The abundance fitness was -0.76 ± 0.094.

With WLKDDEATHCRQCEKEFSISRRKHHIRNCGHIFCNTCSSNELALPSYPKPVRVCDSCHTL [C26I] as the variant, how does the abundance fitness read?
Its abundance fitness is -0.866 ± 0.13.

For WLKDDEATHCRQCEKEFSISRRKHHSRNCGHIFCNTCSSNELALPSYPKPVRVCDSCHTL [C26S], which abundance fitness is on record?
Its abundance fitness is -0.636 ± 0.065.

For WLKDDEATHCRQCEKEFSISRRKHHDRNCGHIFCNTCSSNELALPSYPKPVRVCDSCHTL [C26D], which abundance fitness is on record?
The abundance fitness was -0.794 ± 0.11.

For WLKDDEATHCRQCEKEFSISRRKHHNRNCGHIFCNTCSSNELALPSYPKPVRVCDSCHTL [C26N], which abundance fitness is on record?
The abundance fitness was -0.418 ± 0.12.

With WLKDDEATHCRQCEKEFSISRRKHHQRNCGHIFCNTCSSNELALPSYPKPVRVCDSCHTL [C26Q] as the variant, how does the abundance fitness read?
Its abundance fitness is -0.855 ± 0.087.

Which abundance fitness does the source give for WLKDDEATHCRQCEKEFSISRRKHHTRNCGHIFCNTCSSNELALPSYPKPVRVCDSCHTL [C26T] here?
Its abundance fitness is -0.832 ± 0.09.

With WLKDDEATHCRQCEKEFSISRRKHHARNCGHIFCNTCSSNELALPSYPKPVRVCDSCHTL [C26A] as the variant, how does the abundance fitness read?
The abundance fitness was -0.694 ± 0.083.

For WLKDDEATHCRQCEKEFSISRRKHHWRNCGHIFCNTCSSNELALPSYPKPVRVCDSCHTL [C26W], which abundance fitness is on record?
Its abundance fitness is -0.748 ± 0.11.

With WLKDDEATHCRQCEKEFSISRRKHHYRNCGHIFCNTCSSNELALPSYPKPVRVCDSCHTL [C26Y] as the variant, how does the abundance fitness read?
The abundance fitness was -0.77 ± 0.13.

With WLKDDEATHCRQCEKEFSISRRKHHGRNCGHIFCNTCSSNELALPSYPKPVRVCDSCHTL [C26G] as the variant, how does the abundance fitness read?
The abundance fitness was -0.709 ± 0.072.

With WLKDDEATHCRQCEKEFSISRRKHHVRNCGHIFCNTCSSNELALPSYPKPVRVCDSCHTL [C26V] as the variant, how does the abundance fitness read?
Its abundance fitness is -0.913 ± 0.082.

For WLKDDEATHCRQCEKEFSISRRKHHHRNCGHIFCNTCSSNELALPSYPKPVRVCDSCHTL [C26H], which abundance fitness is on record?
The abundance fitness was -0.628 ± 0.11.

Which abundance fitness does the source give for WLKDDEATHCRQCEKEFSISRRKHHKRNCGHIFCNTCSSNELALPSYPKPVRVCDSCHTL [C26K] here?
The abundance fitness was -0.677 ± 0.12.

For WLKDDEATHCRQCEKEFSISRRKHHLRNCGHIFCNTCSSNELALPSYPKPVRVCDSCHTL [C26L], which abundance fitness is on record?
The abundance fitness was -0.763 ± 0.055.

For WLKDDEATHCRQCEKEFSISRRKHHERNCGHIFCNTCSSNELALPSYPKPVRVCDSCHTL [C26E], which abundance fitness is on record?
The abundance fitness was -0.655 ± 0.11.

For WLKDDEATHCRQCEKEFSISRRKHHPRNCGHIFCNTCSSNELALPSYPKPVRVCDSCHTL [C26P], which abundance fitness is on record?
Its abundance fitness is -0.508 ± 0.071.

Reference: the Human Domainome abundance scans (Beltran et al. 2025)
